Experimental data taken from patent US20200197485A1.

Molecular target: Siglec-10Fc (human) (UniProt Q96LC7)
Test: Biacore (SPR): value printed under the KD line for the control Fc with Siglec-10Fc. No curve is drawn for the control Fc.

UniProt Q96LC7, sequence (Q96LC7 17-546): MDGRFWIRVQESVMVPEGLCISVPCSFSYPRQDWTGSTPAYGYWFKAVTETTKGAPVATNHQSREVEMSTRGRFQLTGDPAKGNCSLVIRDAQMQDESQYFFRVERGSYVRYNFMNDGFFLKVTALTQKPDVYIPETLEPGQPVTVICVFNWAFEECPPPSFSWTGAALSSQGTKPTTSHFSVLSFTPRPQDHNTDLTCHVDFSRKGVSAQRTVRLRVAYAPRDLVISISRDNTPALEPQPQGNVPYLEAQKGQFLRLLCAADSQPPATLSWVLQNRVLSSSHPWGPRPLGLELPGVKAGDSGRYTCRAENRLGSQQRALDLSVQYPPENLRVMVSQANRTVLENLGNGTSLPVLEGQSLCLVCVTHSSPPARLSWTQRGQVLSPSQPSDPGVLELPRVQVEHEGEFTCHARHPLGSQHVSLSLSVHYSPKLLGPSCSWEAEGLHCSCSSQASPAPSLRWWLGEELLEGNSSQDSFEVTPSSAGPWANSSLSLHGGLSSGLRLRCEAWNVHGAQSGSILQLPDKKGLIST

## control Fc
  Kd: 16.2 µM
